Data set [1] deals with the molecule itself. As to the kind of experiment: yeast two-hybrid, beta-galactosidase filter assay; bait and prey RNase H-like protein.
Data set [2] addresses T1, untagged hen egg white lysozyme (hen, UniProt P00698 19-147).
T1 construct: Negative control; also called HEWL
Kind of data set: farwestern blot (FIG. 13), control lane.

Data set [3] deals with T2, untagged RNase A (UniProt P61823 27-150).
T2 construct: Negative control
T2 sequence: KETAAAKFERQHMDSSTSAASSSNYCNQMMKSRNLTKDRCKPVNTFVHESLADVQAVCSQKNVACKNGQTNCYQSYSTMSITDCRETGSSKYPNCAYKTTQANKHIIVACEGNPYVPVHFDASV
As to the kind of experiment: farwestern blot (FIG. 13), control lane.

The target of data set [4] is T3, untagged bovine serum albumen (bovine, UniProt P02769 25-607).
T3 construct: Negative control; also called BSA
Kind of data set: Ni column pull down under physiological conditions, SDS PAGE autoradiogram.

T1 sequence (P00698 19-147): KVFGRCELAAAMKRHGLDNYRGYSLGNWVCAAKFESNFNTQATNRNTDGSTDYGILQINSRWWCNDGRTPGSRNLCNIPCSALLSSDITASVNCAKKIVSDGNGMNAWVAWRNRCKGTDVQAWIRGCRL
T3 sequence (P02769 25-607 limits assumed): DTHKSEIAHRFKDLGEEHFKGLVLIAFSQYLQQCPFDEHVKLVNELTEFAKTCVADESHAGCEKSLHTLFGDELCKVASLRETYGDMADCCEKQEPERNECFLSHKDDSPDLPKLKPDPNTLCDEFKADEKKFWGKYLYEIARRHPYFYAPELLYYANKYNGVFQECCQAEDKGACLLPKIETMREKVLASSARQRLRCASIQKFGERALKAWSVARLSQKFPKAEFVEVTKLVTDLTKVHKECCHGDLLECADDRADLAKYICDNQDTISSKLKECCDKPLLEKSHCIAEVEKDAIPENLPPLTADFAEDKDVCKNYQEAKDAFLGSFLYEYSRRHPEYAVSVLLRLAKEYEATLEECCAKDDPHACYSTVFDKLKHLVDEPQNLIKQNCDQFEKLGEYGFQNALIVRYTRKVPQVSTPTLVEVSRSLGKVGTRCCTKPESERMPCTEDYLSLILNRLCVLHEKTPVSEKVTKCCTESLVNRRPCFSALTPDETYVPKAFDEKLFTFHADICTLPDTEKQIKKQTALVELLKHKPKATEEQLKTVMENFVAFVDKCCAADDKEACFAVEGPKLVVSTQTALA

B1: RNase H-like protein (sugarcane), yeast two-hybrid fusion (other)
chain: GHYGRGEHCMKNMAASYSQDAQLDLVLPDAPVDASASRSEHSSQLASSNWRSVIQNSPPDLLCGCGRPAIRRTAETAKNNGRIFRTCPACKIWIWQDLLDSYVNALISYCRDASIDSLQSELESSRLLISEKQAQISRLEKQLETLQPLISKYTEQSRSIAQASIPSSLFFLEACSLRHQRRRVNENQGGANFKRSYWSD
notes: Prey clone from the cDNA library of silenced sugarcane plant #16; same id for bait and prey fusions
B1: the binding result in data set [1] is “binds”.

B2: 35S labeled RNase H-like protein transcription and translation (TNT) product (other)
chain: B1 chain
modifications: labeled with 35S Cysteine
notes: Made in rabbit reticulocyte lysate; used as probe in farwestern blots and as the labelled partner in the pull down
Regarding B2, the binding result in data set [2], in data set [3] and in data set [4] was “no binding” in each case.

Source of the values: patent publication US20030099984A1 (TEXAS A AND M UNIVERSITY SYSTEM, published 2003).
